Results taken from the RNAGym collection of RNA variant scans (doi:10.1021/acssynbio.7b00057).

B1: Pistol ribozyme (parent)
chain: GGGUCGUUGUUCCAUAAUCGCGUGGAUAUGGCACGCAAGUUUCUACCGGGCACCGUAAAUGUCCGACUGGAGCCGUUCGGGCGGCUAUAAACAGACCUCAGGCCCGAAGCGUGGCGGCACCUGCCGCCGGUGGUAAAAAAGAUCGGAAGAGCACACGUCU

Variants of: B1
Test: aptazyme ON/OFF ratio, guanine; higher = stronger switching; co-transcriptional cleavage with and without guanine

| Variant | aptazyme ON/OFF ratio |
| --- | --- |
| GGGUCGAGUAGCCAUAAUCGCGUGGAUAUGGCACGCAAGUUUCUACCGGGCACCGUAAAUGUCCGACUGGAGCCGUUCGGGCGGCUAUAAACAGACCUCAGGCCCGAAGCGUGGCGGCACCUGCCGCCGGUGGUAAAAAAGAUCGGAAGAGCACACGUCU [U7A U8G G9U U10A U11G] | 2.03 |
| GGGUCGAGUACCUAUAAUCGCGUGGAUAUGGCACGCAAGUUUCUACCGGGCACCGUAAAUGUCCGACUGGAGCCGUUCGGGCGGCUAUAAACAGACCUCAGGCCCGAAGCGUGGCGGCACCUGCCGCCGGUGGUAAAAAAGAUCGGAAGAGCACACGUCU [U7A U8G G9U U10A U11C C13U] | 0.998 |
| GGGUCGAGUACCGAUAAUCGCGUGGAUAUGGCACGCAAGUUUCUACCGGGCACCGUAAAUGUCCGACUGGAGCCGUUCGGGCGGCUAUAAACAGACCUCAGGCCCGAAGCGUGGCGGCACCUGCCGCCGGUGGUAAAAAAGAUCGGAAGAGCACACGUCU [U7A U8G G9U U10A U11C C13G] | 1.09 |
| GGGUCGAGUACCAAUAAUCGCGUGGAUAUGGCACGCAAGUUUCUACCGGGCACCGUAAAUGUCCGACUGGAGCCGUUCGGGCGGCUAUAAACAGACCUCAGGCCCGAAGCGUGGCGGCACCUGCCGCCGGUGGUAAAAAAGAUCGGAAGAGCACACGUCU [U7A U8G G9U U10A U11C C13A] | 1.02 |
| GGGUCGAGUACUCAUAAUCGCGUGGAUAUGGCACGCAAGUUUCUACCGGGCACCGUAAAUGUCCGACUGGAGCCGUUCGGGCGGCUAUAAACAGACCUCAGGCCCGAAGCGUGGCGGCACCUGCCGCCGGUGGUAAAAAAGAUCGGAAGAGCACACGUCU [U7A U8G G9U U10A U11C C12U] | 1.04 |
| GGGUCGAGUACGUAUAAUCGCGUGGAUAUGGCACGCAAGUUUCUACCGGGCACCGUAAAUGUCCGACUGGAGCCGUUCGGGCGGCUAUAAACAGACCUCAGGCCCGAAGCGUGGCGGCACCUGCCGCCGGUGGUAAAAAAGAUCGGAAGAGCACACGUCU [U7A U8G G9U U10A U11C C12G C13U] | 1.4 |
| GGGUCGAGUACGGAUAAUCGCGUGGAUAUGGCACGCAAGUUUCUACCGGGCACCGUAAAUGUCCGACUGGAGCCGUUCGGGCGGCUAUAAACAGACCUCAGGCCCGAAGCGUGGCGGCACCUGCCGCCGGUGGUAAAAAAGAUCGGAAGAGCACACGUCU [U7A U8G G9U U10A U11C C12G C13G] | 1.27 |
| GGGUCGAGUAGGGAUAAUCGCGUGGAUAUGGCACGCAAGUUUCUACCGGGCACCGUAAAUGUCCGACUGGAGCCGUUCGGGCGGCUAUAAACAGACCUCAGGCCCGAAGCGUGGCGGCACCUGCCGCCGGUGGUAAAAAAGAUCGGAAGAGCACACGUCU [U7A U8G G9U U10A U11G C12G C13G] | 1.14 |
| GGGUCGAGUAGGAAUAAUCGCGUGGAUAUGGCACGCAAGUUUCUACCGGGCACCGUAAAUGUCCGACUGGAGCCGUUCGGGCGGCUAUAAACAGACCUCAGGCCCGAAGCGUGGCGGCACCUGCCGCCGGUGGUAAAAAAGAUCGGAAGAGCACACGUCU [U7A U8G G9U U10A U11G C12G C13A] | 1.05 |
| GGGUCGAGUAGGUAUAAUCGCGUGGAUAUGGCACGCAAGUUUCUACCGGGCACCGUAAAUGUCCGACUGGAGCCGUUCGGGCGGCUAUAAACAGACCUCAGGCCCGAAGCGUGGCGGCACCUGCCGCCGGUGGUAAAAAAGAUCGGAAGAGCACACGUCU [U7A U8G G9U U10A U11G C12G C13U] | 1.52 |
| GGGUCGAGUAGAGAUAAUCGCGUGGAUAUGGCACGCAAGUUUCUACCGGGCACCGUAAAUGUCCGACUGGAGCCGUUCGGGCGGCUAUAAACAGACCUCAGGCCCGAAGCGUGGCGGCACCUGCCGCCGGUGGUAAAAAAGAUCGGAAGAGCACACGUCU [U7A U8G G9U U10A U11G C12A C13G] | 1.12 |
| GGGUCGAGUAGAAAUAAUCGCGUGGAUAUGGCACGCAAGUUUCUACCGGGCACCGUAAAUGUCCGACUGGAGCCGUUCGGGCGGCUAUAAACAGACCUCAGGCCCGAAGCGUGGCGGCACCUGCCGCCGGUGGUAAAAAAGAUCGGAAGAGCACACGUCU [U7A U8G G9U U10A U11G C12A C13A] | 1.11 |
| GGGUCGAGUAGAUAUAAUCGCGUGGAUAUGGCACGCAAGUUUCUACCGGGCACCGUAAAUGUCCGACUGGAGCCGUUCGGGCGGCUAUAAACAGACCUCAGGCCCGAAGCGUGGCGGCACCUGCCGCCGGUGGUAAAAAAGAUCGGAAGAGCACACGUCU [U7A U8G G9U U10A U11G C12A C13U] | 1.19 |
| GGGUCGAGUACUGAUAAUCGCGUGGAUAUGGCACGCAAGUUUCUACCGGGCACCGUAAAUGUCCGACUGGAGCCGUUCGGGCGGCUAUAAACAGACCUCAGGCCCGAAGCGUGGCGGCACCUGCCGCCGGUGGUAAAAAAGAUCGGAAGAGCACACGUCU [U7A U8G G9U U10A U11C C12U C13G] | 1.49 |
| GGGUCGAGUACUAAUAAUCGCGUGGAUAUGGCACGCAAGUUUCUACCGGGCACCGUAAAUGUCCGACUGGAGCCGUUCGGGCGGCUAUAAACAGACCUCAGGCCCGAAGCGUGGCGGCACCUGCCGCCGGUGGUAAAAAAGAUCGGAAGAGCACACGUCU [U7A U8G G9U U10A U11C C12U C13A] | 1.21 |
| GGGUCGAGUACUUAUAAUCGCGUGGAUAUGGCACGCAAGUUUCUACCGGGCACCGUAAAUGUCCGACUGGAGCCGUUCGGGCGGCUAUAAACAGACCUCAGGCCCGAAGCGUGGCGGCACCUGCCGCCGGUGGUAAAAAAGAUCGGAAGAGCACACGUCU [U7A U8G G9U U10A U11C C12U C13U] | 1.2 |
| GGGUCGAGUAGACAUAAUCGCGUGGAUAUGGCACGCAAGUUUCUACCGGGCACCGUAAAUGUCCGACUGGAGCCGUUCGGGCGGCUAUAAACAGACCUCAGGCCCGAAGCGUGGCGGCACCUGCCGCCGGUGGUAAAAAAGAUCGGAAGAGCACACGUCU [U7A U8G G9U U10A U11G C12A] | 1.06 |
| GGGUCGAGUAGGCAUAAUCGCGUGGAUAUGGCACGCAAGUUUCUACCGGGCACCGUAAAUGUCCGACUGGAGCCGUUCGGGCGGCUAUAAACAGACCUCAGGCCCGAAGCGUGGCGGCACCUGCCGCCGGUGGUAAAAAAGAUCGGAAGAGCACACGUCU [U7A U8G G9U U10A U11G C12G] | 1.19 |
